Legend:
HSV-1 [1] = assay: Quantitative neutralizing activity through indirect immunofluorescence (IIF), InCellAnalyzer count; assay type: cell-based, HSV-1 (HF strain); details: IgG1 Fab; Vero E6 cells
Protocol: (§1) The neutralizing activity of Fabs Ex2, Ex2B, Ex2C, Ex2H and Ex2I was evaluated using the InCellAnalyzer automated count system in order to calculate the IC50s of all Fab and obtain a dose-response curve. Several dilutions of the different Fabs were used in order to obtain the dose-response curve. In all sets of neutralization experiments several Fab dilutions were performed since only using a biological compound limit dilution was possible to obtain the exact amount of Fab able to inhibit viral infection.
(§2) Moreover, the same “dose-response” curve allowed the calculation of Fab IC50 which effectively depicts the in vitro Fab potency. The IC50 is the Fab concentration able to reduce by 50% the cell damage due to the infection of cell monolayer with a standard amount of virus (HSV-1 and HSV-2).
(§3) Quantitative Neutralizing Activity Evaluation Through Indirect Immunofluorescence (IIF) Assay Protocol: […]
(§4) Neutralization activity was then assessed by counting the immunofluorescence infection foci through InCellAnalyzer system.
(§5) The number of infection foci in the cell monolayer infected with viruses treated with the different Fab preparations was compared with the foci counted for the virus control (same virus amount)
(§6) The percentage of neutralization was then evaluated and a standard deviation from the mean was calculated as well (the experiment was performed in triplicate)

HSV-1 [2] = assay: Syncytia formation evaluation (qualitative neutralization assay); assay type: cell-based, HSV-1 (HF strain)
Protocol: (§7) Purified Fabs (Ex2(G2), Ex2B(G2), Ex2C(G2), Ex2H(G2) and Ex2I (G2) were pre-incubated (10 μg/mL) with a standard amount of HSV-1 or HSV-2 isolates. Appropriate experimental controls were also included. The different “infection-mix” was used to infect Vero E6 cells (adsorption 2 hours before change of medium).
(§8) After twenty hours, the cell monolayers were Fixed and Permeabilized with crystal violet containing solution allowing first a qualitative evaluation of Fabs biological activities against both HSV-1 and HSV-2 isolates (procedure described in the Materials and Methods section). The reduction of syncytia formation was assessed by bright field phase contrast optical microscopy. As already stated, this assay allowed a first evaluation of Fab potencies.
(§9) The qualitative assays (described in the Materials and Methods section) were performed on IgG1 format of selected anti-HSV-1 and 2 Fabs (FIG. 11).
(§10) In order to evaluate the potency of Fab Ex2, a qualitative assay using different dilutions was performed. Three different concentrations of Ex2 (10 μg/ml, 5 μg/ml and 2.5 μg/ml) were tested against HSV-1 and 2 through the syncytia formation assay.
(§11) Syncytia Formation Evaluation Through Bright Field Phase Contrast Optical Microscope Protocol: […]
(§12) The reduction of syncytia formation was assessed by bright field phase contrast optical microscope. […]

HSV-2 [3] = assay: Plaque reduction assay; assay type: cell-based, HSV-2 (MS strain); details: due to very high potency
Protocol: (§13) Dose-response quantitative assay: the capability of Fab Ex2 to inhibit HSV infection was assessed by evaluating the presence of lysis plaques on cell monolayer due to HSV infection in the presence or in the absence of Fab Ex2. To confirm the IIF neutralization data, a plaque reduction assay was performed as quantitative evaluation.
(§14) Quantitative Neutralizing Activity Evaluation Through Plaque Reduction Assay Protocol:
(§15) 7×10^5 Vero cells/well were seeded in a 6-wells plate and grown in the appropriate complete medium supplemented with 10% FCS. Experiment was performed with cells at 100% confluence.
(§16) HSV-1 and HSV-2 viral stocks dilution (−5 and −4 respectively) were pre-incubated with purified Fab of interest at different concentrations (5, 2.5 and 1 μg/mL) in a final volume of 800 μL of complete DMEM, for 1 h at 37° C. and 5% CO2.
(§17) Experimental controls were added as well.
(§18) After washing the cells with a PBS 1× solution, viral solutions were added to the monolayers and incubated for 2 h at 37° C. and 5% CO2 for adsorption. […]
(§19) Neutralization activity was then assessed by counting the plaque forming units (PFU). In particular, the number of PFU in the cell monolayer infected with Fab-treated viruses was compared with the PFU counted for the virus control (same virus amount).

HSV-2 [4] = assay: Quantitative neutralizing activity through indirect immunofluorescence (IIF), InCellAnalyzer count; assay type: cell-based, HSV-2 (MS strain); details: IgG1 Fab; Vero E6 cells
Protocol: as §1, §2, §3, §4, §5, §6

HSV-1 [5] = assay: Plaque reduction assay; assay type: cell-based, HSV-1 (HF strain); details: 1 μg/mL
Protocol: as §13, §14, §15, §16, §17, §18, §19

HSV-2 [6] = assay: Cell-to-cell infection inhibition (plaque areas, post-adsorption); assay type: cell-based; details: Fabs 200 ug/mL, IgGs 100 ug/mL
Protocol: (§20) Post post-adsorption assays have been performed in order to evaluate the contribution of IgGA in inhibiting “cell-to-cell” infection by measuring the plaque areas resulting from infected cells treated or untreated with FabA or IgGA.
(§21) Fabs tested in post-adsorption cell-to-cell infection inhibition assays have also been preliminary used at a concentration of 50 and 200 ug/mL against HSV-1 and HSV-2 tested isolates respectively*.
(§22) IgGs tested in post-adsorption “cell-to-cell” infection inhibition assays have also been preliminary used at a concentration of 25 and 100 ug/mL against HSV-1 and HSV-2 tested isolates respectively*.

HSV-1 [7] = assay: as above; assay type: cell-based; details: Fabs 50 ug/mL, IgGs 25 ug/mL
Protocol: as §20, §21, §22

HSV-2 [8] = assay: Syncytia formation evaluation (qualitative neutralization assay); assay type: cell-based, HSV-2 (MS strain)
Protocol: as §7, §8, §9, §10, §11, §12

B1: Ex2: human monoclonal Fab, VH SEQ ID NO.1 and VL SEQ ID NO.2, IgG2 Fab converted to IgG1 (antibody, listed as Homo sapiens, V domains shown)
VH: LESGGGVVQPGRSLRLSCAASGFTFTTFAMHWVRQAPGKGLEWLAFISYDGSNKYYADSVKGRFTISRDNSKNTLYLQMNSLRAEDTSIYYCAREVWNYADYWGQGALVTVSS
VL: ELTQSPGTLSSSPGHRATLSCKASAPLGSNHMAWYQQKPGQAPRLLIYGASTRATGVPARFTGSGSGTDFTLTISSLQPEDFATYYCQQANSFPRTFGQGTKVEIK
modifications: IgG1 constant regions
HSV-1 (IC50 μg/mL ± CI 95%) (HSV-1 [1]): 0.7 (0.44 ± 1.21) μg/mL | inhibition of cellular disruption and syncytia formation, HSV-1 (HSV-1 [2]; 10 μg/ml, 5 μg/ml and 2.5 μg/ml, dose-dependent): strongly inhibit | neutralizing potency of IgG1 format compared to IgG2 format, HSV-1 (HSV-1 [2]; IgG1 converted Fabs): increased potency | dose-response effect in HSV-2 plaque neutralization assay (HSV-2 [3]): a dose-response effect could not be measured | HSV-2 (IC50 μg/mL ± CI 95%) (HSV-2 [4]): 0.2 (0.19 ± 0.23) μg/mL | HSV-1 plaque formation measured as PFU (HSV-1 [5]): inhibited | inhibition of plaque areas (cell-to-cell infection), HSV-2 (HSV-2 [6]): inhibits | inhibition of plaque areas (cell-to-cell infection), HSV-1 (HSV-1 [7]): inhibits | inhibition of HSV-2 infection (syncytia formation assay) (HSV-2 [8]; 10 μg/ml, 5 μg/ml and 2.5 μg/ml, very low concentrations): completely inhibit | neutralizing potency of IgG1 format compared to IgG2 format, HSV-2 (HSV-2 [8]; IgG1 converted Fabs): increased potency

Source: US10899824B2 (Polichem S.A., priority 2016, dated 2021)
